The values that follow come from PMC6319605 (Nature microbiology, 2018).

In the experiment the target is Ubiquitin (Ub-propargylamide activity-based probe) (UniProt P0CG48 1-76, C-terminal propargylamide (Ub-PA), covalently linked to ChlaDUB1). Kind of experiment: crystal structure.

B1: Chlamydia trachomatis ChlaDUB1 (130-401) (enzyme)
chain: PVKTQEDLLPLVPEQVFVEMYEDMARRQTIEALVPAWDSDIIFKCLCYFHTLYPGLIPLETFPPATIFNFKQKIISILEDKKAVLRGEPIKGPLPICCSKENYRRHLQRTTLLPVFMWYHPTPKTLSDTMQTMKQLAIKGSVGASHWLLVIVDIQARRLVYFDSLYNYVMPPENMKKELQSFAQQLDQVYPAYDSKKFSVKIAAKEVIQRGSGSSCGAWCCQFLHWYLKDPLTDALNDLPVDSVERHENLASFVQACEAAVQDLPELSWPEA
modifications: covalently linked to one Ub molecule through the Ub-propargylamide probe (in the enzymatic S1 site)
For B1, the binding result is given as “binds”.
